± gives the uncertainty stated by the source.
experiment: amyloid nucleation score (Sup35N fusion, yeast selection) (log enrichment); library NNK3; higher = more nucleation; inactive = no reads after selection
Method in brief: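 In psi-negative yeast, Sup35N fusions carrying peptides of 20 random codons were induced with 100 μM copper sulfate for 24 hours. The cells then grew 7 days at 30°C on medium lacking adenine and uracil, and plasmid inserts from input and output were Illumina-sequenced, excluding sequences with under 100 input reads. Nucleation score is the DiMSum log enrichment of output over input reads, centred on the mode score of non-aggregating sequences.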

Amyloid nucleation score, 1.16 ± 0.094:
LTKYVVFSIY

Amyloid nucleation score, 1.23 ± 0.1:
LSMFTFCRYPGCQRLDRKPY

Amyloid nucleation score, 0.507 ± 0.25:
LSLFVGGAEGWVKGDPASEG

Amyloid nucleation score, 0.171 ± 0.39:
LRMGVNILLAMGCFSAYPGE

Amyloid nucleation score, -0.208 ± 0.6:
LSYCKRHIRRRLFVG

Amyloid nucleation score, -0.884 ± 2.4:
LVSTEKWEYLGQCARRELRF

Amyloid nucleation score, 0.084 ± 0.5:
LTRRSRLWHMSSYTWKKDVI

Amyloid nucleation score, -0.632 ± 0.9:
LSVDRL

Amyloid nucleation score, -0.643 ± 1.7:
LSMPMAAGCFKHMPCAA

Amyloid nucleation score, -0.075 ± 0.66:
LRSSYQNLDPSVCQQFHLGE

Amyloid nucleation score, 2.33 ± 0.073:
LRASFWECLCCCVVR

Amyloid nucleation score, 0.04 ± 0.66:
LQSSMSIYSQFWSVDSLFYE

Amyloid nucleation score, 2.35 ± 0.077:
LVNCISIVLFPECNKSLLHR

Amyloid nucleation score, 0.272 ± 0.43:
LRRTIYFTDDRCLWLDFAPL

Amyloid nucleation score, 0.617 ± 0.19:
LPPFCGSGCLSGLLRSKTRR

Amyloid nucleation score, inactive:
LNIIP, LNKLEVNDVSIGYVNCTLFK, LNLYRLPLTPSLSASRMIAY, LNNFMWKHVMGYPYVAWLAF, LNNRA, LNNTQFL, LNQGSYYGMARFPL, LNQVSLLVGNMRWDCDIKSA, LNSSVYVLLRSILPSVWNQL, LNVMFSFRYPWFSVFVLMIV, LNYVVTHLYLVLFHVMVSDG, LPCWKFGLASHR, LPDEEHVRYVCYLYDM, LPGNLYFYVTGTCDNYLTVW, LPHNIVLAKKTLKV, LPIQVSFVMVRWGSMFMFRN, LPRLYDFLGLVWVIA, LPTSFTSFNLKSLASMT, LPYLKQ, LPYTVQAVVIRVDKSYVSSV, LQCLNQVRSRLVVLLLIFNV, LQEGSN, LQFNISYRMFSEVCVFLLVW, LQLRSLF, LQQCFYMVNFFMLSSLAVLL, LQSFPYQYIITR, LQSNFRSPTISGFTTEKVGK, LQVVNLSR, LQWVRLVSRVQSTDCNLGAG, LQYFTYLGQCLKRETHHFLR, LRFNVDAMFSTSVVRIQKCL, LRGMDYVCDEPLYVTLWVNR, LRIERQSAFSCILDM, LRMHWDTYERSVDTIASVVH, LRMVTHMSVYDRNHLSW, LRRGMMARFIVNVVRVN, LRVPSPYIFYKSKGHNIGSL, LSAADSMCGKRCLRGTP, LSCHTKETFPDDG, LSCMNRTQCHASFSLPL, LSCPLVYSTSSFIK, LSCVLTVGTKTLFRAQMTQV, LSCYRVFSYCT, LSDLEDWRNYRWSKEDLKVE, LSDYLGYDG, LSFCVVSTGRCAAMEN, LSFVCTEETHGTNDSAGYNF, LSFYTFGNNWTKRCNCPTAS, LSGKTMVFFPKSNMRNNTRS, LSGNCKYRTLWFIGPYSHFC, LSHAG, LSIVRAGVRSGNRGELFRCR, LSLLVTLG, LSLRCEFSSASSGCTSGQRR, LSLWRWSVHS, LSPPLVSWGGPTVRMGKCSG, LSRCVPNDVGKAYMMKEKRK, LSRFD, LSSFIFCFSLYAVLTMGVVH, LSSFRPSYEYYLRDISAMSW, LSSIWKGLRGLFIFFWHIKK, LSSWFHFLSNTATRQKVWRS, LSVANQNCVKLDIVHM, LSVSIGVVGF, LSWRRCA, LSWRTPISAMFDSWACGGGR, LTDDSCCPRR, LTDRDDDSTHVRSPYSRLLW, LTLLHRKRMVLRYCNFMLYL, LTQLTIIKTGLTCLMA, LTSLSKSFCNNVHAYSDFLH, LTVCV, LVCGPI, LVCMEISSNFLATVCVEWIG, LVDLRTVSYTLSQKMKFGGS, LVFKLAEMCADPIKQRCCGL, LVFKYSKAVSTYWYEGDQVT, LVFSRACTLVDTIE, LVIACTGYVSLCR, LVICGYDIRN, LVINL, LVLLHVLGERSSAPRRTVMR, LVLMSEGFM, LVLPVSFRVCFREVIIHMKY, LVLRGKRSDV, LVNELAQVVVCLGSRSTVLG, LVNGVHLREWVTPRVECGSF, LVSHSTMLPVSFFAHYRGEV, LVTIYW

Amyloid nucleation score, 1.62 ± 0.099:
LTICFVSYVTVGDAGTMTPR

Amyloid nucleation score, 0.826 ± 0.11:
LNILF

Amyloid nucleation score, 0.753 ± 0.11:
LVCSLLQASNWCVISSS

Amyloid nucleation score, 0.767 ± 0.25:
LNLQPRVDVVLVLFRTRANK

Amyloid nucleation score, 1.24 ± 0.082:
LTSCTATLCICCSRVVTVEI

Amyloid nucleation score, 2.06 ± 0.094:
LVFTWYFMCNVMGIFDRGTR

Amyloid nucleation score, -0.329 ± 1.3:
LSGLESVRSSYDWVVGGWIS

Amyloid nucleation score, 0.081 ± 0.52:
LNVRAVFIVTRISVSYSRAR

Amyloid nucleation score, 0.812 ± 0.24:
LSRYSRSTIILEHWCDTDWY

Amyloid nucleation score, -0.443 ± 0.96:
LRLTIMSGIRVPVFYEHSFM

Amyloid nucleation score, 2.44 ± 0.071:
LVMINCCHVFRKARSTAERQ

Amyloid nucleation score, 1.24 ± 0.12:
LTFIMLCIS

Amyloid nucleation score, 1.46 ± 0.081:
LPEMGFFSLVDNWLAVAFSK

Amyloid nucleation score, -0.413 ± 1.1:
LSIVQD

Amyloid nucleation score, -0.665 ± 1.3:
LNILIFFCFYGVWKIWKIIS

— the supplement of paper PMC12042874
